# Assay results: IntAct's records for PubMed 24297912
# B1: Basigin (Homo sapiens), P35613-2 (parent)
# chain: MAAALFVLLGFALLGTHGASGAAGTVFTTVEDLGSKILLTCSLNDSATEVTGHRWLKGGVVLKEDALPGQKTEFKVDSDDQWGEYSCVFLPEPMGTANIQLHGPPRVKAVKSSEHINEGETAMLVCKSESVPPVTDWAWYKITDSEDKALMNGSESRFFVSSSQGRSELHIENLNMEADPGQYRCNGTSSKGSDQAIITLRVRSHLAALWPFLGIVAEVLVLVTIIFIYEKRRKPEDVLDDDDAGSAPLKSSGQHQNDKGKNVRQRNSS
# Variants of: B1
# Conditions: with rh5_plaf7 RH5, Q8IFM5
# Chain of rh5_plaf7 RH5, Q8IFM5 (Q8IFM5 whole entry): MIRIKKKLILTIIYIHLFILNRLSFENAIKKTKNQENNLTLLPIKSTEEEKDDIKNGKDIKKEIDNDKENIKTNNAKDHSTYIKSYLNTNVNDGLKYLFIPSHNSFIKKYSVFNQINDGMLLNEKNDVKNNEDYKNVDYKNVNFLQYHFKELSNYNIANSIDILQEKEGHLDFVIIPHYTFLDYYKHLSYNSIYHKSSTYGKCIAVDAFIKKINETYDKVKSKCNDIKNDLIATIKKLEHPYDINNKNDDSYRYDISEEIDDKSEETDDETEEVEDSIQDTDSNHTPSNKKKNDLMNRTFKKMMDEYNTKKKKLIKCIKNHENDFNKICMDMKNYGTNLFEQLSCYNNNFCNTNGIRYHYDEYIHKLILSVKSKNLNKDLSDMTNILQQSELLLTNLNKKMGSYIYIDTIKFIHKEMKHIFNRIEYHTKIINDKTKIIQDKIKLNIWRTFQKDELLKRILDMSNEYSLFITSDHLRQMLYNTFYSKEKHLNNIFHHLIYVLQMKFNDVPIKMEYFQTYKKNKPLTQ
row,Variant,effect of a mutation on the interaction
1,MAAALFVLLGFALLGTHGASGAAGTVFTTVEELGSKILLTCSLNDSATEVTGHRWLKGGVVLKEDALPGQKTEFKVDSDDQWGEYSCVFLPEPMGTANIQLHGPPRVKAVKSSEHINEGETAMLVCKSESVPPVTDWAWYKITDSEDKALMNGSESRFFVSSSQGRSELHIENLNMEADPGQYRCNGTSSKGSDQAIITLRVRSHLAALWPFLGIVAEVLVLVTIIFIYEKRRKPEDVLDDDDAGSAPLKSSGQHQNDKGKNVRQRNSS [D32E],with no effect
2,MAAALFVLLGFALLGTHGASGAAGTVFTTVEDLGSKILLTCSLNDSATEVTGHRWLKGGVVLKEDALPGQKTEFEVDSDDQWGEYSCVFLPEPMGTANIQLHGPPRVKAVKSSEHINEGETAMLVCKSESVPPVTDWAWYKITDSEDKALMNGSESRFFVSSSQGRSELHIENLNMEADPGQYRCNGTSSKGSDQAIITLRVRSHLAALWPFLGIVAEVLVLVTIIFIYEKRRKPEDVLDDDDAGSAPLKSSGQHQNDKGKNVRQRNSS [K75E],with no effect
3,MAAALFVLLGFALLGTHGASGAAGTVFTTVEDLGSKILLTCSLNDSATEVTGHRWLKGGVVLKEDALPGQKTEFKVDSDDQWGEYSCVFLPEPMGTANIKLHGPPRVKAVKSSEHINEGETAMLVCKSESVPPVTDWAWYKITDSEDKALMNGSESRFFVSSSQGRSELHIENLNMEADPGQYRCNGTSSKGSDQAIITLRVRSHLAALWPFLGIVAEVLVLVTIIFIYEKRRKPEDVLDDDDAGSAPLKSSGQHQNDKGKNVRQRNSS [Q100K],decreasing interaction strength
4,MAAALFVLLGFALLGTHGASGAAGTVLTTVEDLGSKILLTCSLNDSATEVTGHRWLKGGVVLKEDALPGQKTEFKVDSDDQWGEYSCVFLPEPMGTANIQLHGPPRVKAVKSSEHINEGETAMLVCKSESVPPVTDWAWYKITDSEDKALMNGSESRFFVSSSQGRSELHIENLNMEADPGQYRCNGTSSKGSDQAIITLRVRSHLAALWPFLGIVAEVLVLVTIIFIYEKRRKPEDVLDDDDAGSAPLKSSGQHQNDKGKNVRQRNSS [F27L],decreasing interaction strength
